Here are results for two molecules from patent US20200109196A1 (MOGAM INSTITUTE FOR BIOMEDICAL RESEARCH, published 2020).

Assay [1] deals with T1, recombinant human CEACAM-1/CD66a protein (R&D systems; Cat. No. 2244-CM) (human, UniProt P13688 35-428).
T1 construct: Bought protein; captured on anti-His (His1K) biosensors in the Octet assay, so it carries a His tag; also called HCCM1; recombinant CEACAM-1/CD66a protein
T1 sequence (looked up): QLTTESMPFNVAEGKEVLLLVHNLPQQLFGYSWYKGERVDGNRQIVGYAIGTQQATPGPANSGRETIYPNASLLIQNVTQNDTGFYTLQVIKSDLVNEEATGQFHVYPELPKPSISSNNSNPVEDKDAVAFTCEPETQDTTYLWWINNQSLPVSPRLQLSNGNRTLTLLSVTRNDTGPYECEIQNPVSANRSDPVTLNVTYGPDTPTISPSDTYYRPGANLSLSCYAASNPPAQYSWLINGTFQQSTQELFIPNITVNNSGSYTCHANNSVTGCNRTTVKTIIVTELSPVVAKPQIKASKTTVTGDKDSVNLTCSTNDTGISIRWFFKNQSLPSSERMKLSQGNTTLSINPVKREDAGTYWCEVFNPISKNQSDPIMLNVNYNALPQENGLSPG
Briefly: Octet QKe biolayer interferometry, anti-His (HIS1K) biosensors, antibody 6.25-400 nM. How it is done:
The last well in each row was with a sample at the antibody concentration of 0 nM. Recombinant human CEACAM1 protein (R&D Systems; Cat. No. 2244-CM) was diluted to obtain a concentration of […], and dispensed into each well of another column at 200 μl/well.
As for the washing buffer, neutralization buffer and baseline buffer, Reagent/Kinetics buffer (10×) (Fortebio; Cat. No. 18-1092) were 1:10 diluted and dispensed into each well of a column in a row at 200 μl/well, and the regeneration buffer was dispensed into each well at 200 μl/well. Greiner 96-well plate was separately prepared, Reagent/Kinetics buffer (1×) was dispensed into each well of the number of biosensors to be used in a row at 200 μl/well, and Biosensors/Anti-His (His1K) (Fortebio; Cat. No. 18-5120) cassette was installed.
(In general: Biolayer interferometry detects binding as a change in optical thickness at a sensor tip.)

In the next assay the target is T2, BSA (bovine, UniProt P02769).
T2 construct: blank antigen; also called BSA protein; bovine serum albumin
Kind of assay: ELISA on coated antigen (0.25 µg/ml), HRP anti-human IgG Fc, OD450. An excerpt: (§1) All of the recombinant human CEACAM-1/CD66a protein (R&D systems; Cat No. 2244-CM, HCCM1), recombinant human CEACAM-5/CD66e protein (R&D systems; Cat. No. 4128-CM, HCCM5), recombinant human CEACAM-6/CD66c protein (R&D systems; Cat. No. 3934-CM, HCCM6), recombinant human CEACAM-3/CD66d protein (Sino Biological; Cat. No. 11933-H08H, HCCM3), human B7-H5/Gi24/VISTA protein (Sino Biological; Cat. No. 13482-H08H, HVISTA), recombinant human CEACAM-1/CD66a protein Bulk (R&D systems; Cat. No. 2244-CM, HCCM1 (bulk)), recombinant human CEACAM1-N domain-Kappa protein (Mogam, in-house production, HCCM1-N domain-kappa), and BSA protein (2.5 μg each) were dissolved in 10 ml of PBS, respectively, and dispensed into a 96-well plate at 100 μl/well, which was incubated at 4° C. overnight. Thereafter, each well was treated with 300 μl of 1% (v/v) bovine serum albumin, and incubated at 37° C. for 1 hour.
(§2) The diluted antibodies were dispensed into each well coated with each protein at 100 μl/well, and incubated at 37° C. for 1 hour. Then, each well was washed 3 times with a washing buffer prepared by diluting 10 μl of Tween 20 (Sigma-Aldrich; Cat. No. P9146) in 990 μl of PBS. Thereafter, 2 μl of HRP-conjugated human anti-IgG-Fc antibody (anti-human IgG Fc, Sigma Cat. No. A0170) was diluted in 10 ml of PBS, added to the wells at 100 μl/well, and incubated for 1 hour.
(§3) After completion of the reaction, the wells were washed three times with the washing buffer, and 100 μl of TMB solution was added to each well to induce color development. Then, 100 μl of 2 M H₂SO₄ was added to each well to stop the reaction, and the absorbance was measured at a wavelength of 450 nm.
A general note: ELISA stands for enzyme-linked immunosorbent assay.

A further assay concerns the target T3, HVISTA.
T3 construct: unrelated control antigen; also called human B7-H5/Gi24/VISTA protein (Sino Biological; Cat. No. 13482-H08H); not shown: the vendor's polyhistidine tag
Described as above.
From the text: as §1, §2, §3

The next assay concerns the target T4, mCCM1.
T4 construct: also called mouse CCM1; mouse CEACAM1/CD66a protein (Sino Biological); not shown: the vendor's polyhistidine tag
T4 chain: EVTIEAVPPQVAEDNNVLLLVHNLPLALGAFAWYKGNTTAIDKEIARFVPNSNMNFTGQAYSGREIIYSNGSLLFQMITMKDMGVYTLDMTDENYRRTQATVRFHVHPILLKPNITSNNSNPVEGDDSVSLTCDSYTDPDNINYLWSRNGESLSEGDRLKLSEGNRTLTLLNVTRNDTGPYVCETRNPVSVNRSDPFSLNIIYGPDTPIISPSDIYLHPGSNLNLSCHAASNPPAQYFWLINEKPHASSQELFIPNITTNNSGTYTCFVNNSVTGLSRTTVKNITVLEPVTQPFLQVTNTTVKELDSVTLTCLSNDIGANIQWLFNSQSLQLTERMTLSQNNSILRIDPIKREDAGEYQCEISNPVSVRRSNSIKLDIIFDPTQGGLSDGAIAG
Briefly: ELISA on coated antigen (0.25 µg/ml), HRP anti-human IgG Fab, OD450.
From the text: All of the recombinant human CEACAM-1/CD66a protein (R&D systems; Cat. No. 2244-CM, HCCM1), recombinant human CEACAM-5/CD66e protein (R&D systems; Cat. No. 4128-CM, HCCM5), recombinant human CEACAM-6/CD66c protein (R&D systems; Cat. No. 3934-CM, HCCM6), recombinant human CEACAM-3/CD66d protein (Sino Biological; Cat. No. 11933-H08H, HCCM3), recombinant mouse PD-1 Fc chimeric protein (R&D systems; Cat. No. 1021-PD, mPD-1-Fc), recombinant CEACAM1-Fc (IgG4) protein (Mogam, in-house production, HCCM1-Fc), recombinant human CEACAM-1/CD66a protein Bulk (R&D systems; Cat. No. 2244-CM, HCCM1 (bulk)) and mouse CEACAM1/CD66a protein (Sino Biological; Cat. No. 50571-M08H, mouse CCM1) (2.5 μg each) were dissolved in 10 ml of PBS, respectively and dispensed into a 96-well plate (Nunc; Cat. No. 467679) at 100 μl/well, which was incubated overnight at 4° C. Thereafter, each well was treated with 300 μl of 1% (v/v) bovine serum albumin, which was incubated at 37° C. for 1 hour.
The diluted antibodies were dispensed into each well coated with each protein at 100 μl/well, which was incubated at 37° C. for 1 hour. Then, each well was washed 3 times with a washing buffer prepared by diluting 10 μl of Tween 20 (Sigma-Aldrich; Cat. No. P9146) in 990 μl of PBS. Thereafter, 2 μl of HRP-conjugated human anti-IgG-Fab antibody (anti-human IgG Fab; Sigma; Cat. No. A0293) was diluted in 10 ml of PBS, added to the wells at 100 μl/well, and incubated for 1 hour.
as §3

T3 sequence (chain, as listed by the source limits assumed): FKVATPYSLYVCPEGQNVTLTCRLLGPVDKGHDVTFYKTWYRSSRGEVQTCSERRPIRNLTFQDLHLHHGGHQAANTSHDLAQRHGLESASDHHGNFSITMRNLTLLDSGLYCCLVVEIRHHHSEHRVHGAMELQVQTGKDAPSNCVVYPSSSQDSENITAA
T2 sequence (P02769 25-607 limits assumed): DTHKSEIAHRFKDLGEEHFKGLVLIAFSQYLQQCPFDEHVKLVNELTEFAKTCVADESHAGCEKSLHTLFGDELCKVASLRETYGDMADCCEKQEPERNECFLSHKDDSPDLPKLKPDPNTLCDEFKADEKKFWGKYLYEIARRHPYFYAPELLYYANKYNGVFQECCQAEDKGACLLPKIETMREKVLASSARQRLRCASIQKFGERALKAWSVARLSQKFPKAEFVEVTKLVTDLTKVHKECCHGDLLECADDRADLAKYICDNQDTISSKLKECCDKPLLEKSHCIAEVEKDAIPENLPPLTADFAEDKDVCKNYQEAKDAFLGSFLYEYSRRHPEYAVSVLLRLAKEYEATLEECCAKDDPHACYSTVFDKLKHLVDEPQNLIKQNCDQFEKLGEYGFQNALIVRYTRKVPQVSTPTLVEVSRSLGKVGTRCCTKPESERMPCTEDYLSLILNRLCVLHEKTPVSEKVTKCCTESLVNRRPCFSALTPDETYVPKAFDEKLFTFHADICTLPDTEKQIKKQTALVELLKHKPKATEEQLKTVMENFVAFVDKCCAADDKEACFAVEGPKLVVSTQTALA

B1: 4R9_H4-n20HC+4R26LC (antibody, human IgG4 S228P, lambda, V domains shown)
VH: EVQLLESGGGLVQPGGSLRLSCAASGFNFSNYAMSWVRQAPGKGLEWVSVISHGGGSIYYADSVKGRLTISRDNSKNTLYLQMNSLRAEDTAVYYCARDPTKGYAPTFDYWGQGTLVTVSS
VL: QSVLTQPPSASGTPGQRVTISCSGSSSNIGNNYVSWYQQLPGTAPKLLIYADSKRLSGVPDRFSGSKSGTSASLAISGLRSEDEADYYCGAWDGRLNGYVFGGGTKLTVLG
Consider B1, for which, in assay [1], the equilibrium dissociation constant (Kd) – broadly, the equilibrium constant for the complex coming apart – stood at 25.7 nM; the koff (usually the first-order rate constant of dissociation) came to 0.000321 s⁻¹; the kon (as a rule, the rate constant with which the complex forms) came to 19000 M⁻¹ s⁻¹.

B2: C16 (antibody, human IgG4 S228P, lambda, V domains shown)
VH: EVQLLESGGGLVQPGGSLRLSCAASGFTFSNYSMSWVRQAPGKGLEWVSAISSDGGSKYYADSVKGRFTISRDNSKNTLYLQMNSLRAEDTAVYYCARDPRKHVDRYFDYWGQGTLVTVSS
VL: QSVLTQPPSASGTPGQRVTISCSGSSSNIGSNTVSWYQQLPGTAPKLLIYADNNRPSGVPDRFSGSKSGTSASLAISGLRSEDEADYYCGTWDYSLSGYVLGGGTKLTVLG
Regarding B2, the binding result with BSA, with HVISTA and with mCCM1 was “no binding (tested: 3 µg/ml (single concentration))” in each case.
